Reference: article doi:10.1101/2022.10.06.511240 (bioRxiv, 2022)

Target: T1, NRT1.1-His (Arabidopsis thaliana, UniProt Q05085 1-590)
T1 sequence (looked up): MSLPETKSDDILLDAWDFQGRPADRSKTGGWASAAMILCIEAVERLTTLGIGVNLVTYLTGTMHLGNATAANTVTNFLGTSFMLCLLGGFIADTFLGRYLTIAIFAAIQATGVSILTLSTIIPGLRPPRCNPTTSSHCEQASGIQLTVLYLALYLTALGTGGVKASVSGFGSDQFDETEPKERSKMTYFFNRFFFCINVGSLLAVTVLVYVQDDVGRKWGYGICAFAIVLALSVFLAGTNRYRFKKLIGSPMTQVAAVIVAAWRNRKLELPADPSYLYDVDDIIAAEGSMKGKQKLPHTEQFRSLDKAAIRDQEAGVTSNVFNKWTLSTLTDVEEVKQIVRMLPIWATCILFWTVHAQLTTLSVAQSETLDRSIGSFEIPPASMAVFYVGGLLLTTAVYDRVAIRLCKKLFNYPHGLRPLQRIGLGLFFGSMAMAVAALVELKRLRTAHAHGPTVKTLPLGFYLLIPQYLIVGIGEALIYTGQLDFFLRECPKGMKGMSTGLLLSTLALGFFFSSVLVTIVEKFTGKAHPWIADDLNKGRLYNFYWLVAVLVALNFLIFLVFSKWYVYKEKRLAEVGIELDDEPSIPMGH
Assay: pull-down

binding result: binds
B1: CPK6-GST (enzyme, Arabidopsis thaliana, UniProt Q38872 1-544, looked up)
chain: MGNSCRGSFKDKIYEGNHSRPEENSKSTTTTVSSVHSPTTDQDFSKQNTNPALVIPVKEPIMRRNVDNQSYYVLGHKTPNIRDLYTLSRKLGQGQFGTTYLCTDIATGVDYACKSISKRKLISKEDVEDVRREIQIMHHLAGHKNIVTIKGAYEDPLYVHIVMELCAGGELFDRIIHRGHYSERKAAELTKIIVGVVEACHSLGVMHRDLKPENFLLVNKDDDFSLKAIDFGLSVFFKPGQIFKDVVGSPYYVAPEVLLKHYGPEADVWTAGVILYILLSGVPPFWAETQQGIFDAVLKGYIDFDTDPWPVISDSAKDLIRKMLCSSPSERLTAHEVLRHPWICENGVAPDRALDPAVLSRLKQFSAMNKLKKMALKVIAESLSEEEIAGLRAMFEAMDTDNSGAITFDELKAGLRRYGSTLKDTEIRDLMEAADVDNSGTIDYSEFIAATIHLNKLEREEHLVSAFQYFDKDGSGYITIDELQQSCIEHGMTDVFLEDIIKEVDQDNDGRIDYEEFVAMMQKGNAGVGRRTMKNSLNISMRDV
